# Assay results published in the domain aggregation screens of Martell et al. (2025).
# Assay: soluble fraction after stress (log2 fold change); higher = more stays soluble; pooled small domains, quantitative proteomics
# Conditions: stress: pH 4
# In short: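 Custom libraries of small protein domains were pooled and exposed to pH 4. High-throughput quantitative proteomics then measured the log2 fold change in the amount of each domain still soluble, with higher values meaning more stayed soluble. This soluble-fraction fold change stands for aggregation propensity.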
row,Sequence,soluble fraction (log2)
1,HMQKRDQKKRANMLDSLKVGTRIVTIGGIFGEIAKIKDDRIRIKVAEDVEIWIRRAAVGTVIT,≥ 0.43
2,HMTKVKIDRLFSIVQMLVNRKSVTAKELADYFNVSVRTIYRDIEILSANGIPIYATQGKGGGISILEN,-0.663
3,HMGIQQNHMTLHARSVASSANVPAEHFDTLVEKLIESGDIKVWKAREILMNLSRQHEEILDES,-0.365
4,HMISDDLYQAVLDFTLTQDTISISRLQQNFNLGWPRARQLYDQLMQNGIIEPPDEANSAKGAVVIANKRG,-1.06
5,HMGFTDREREIIRNDLVATGRELFGTFGLKKTSIEDLTKAVGIAQGSFYTFFNSKEELYLEVMDREGEA,-1.47
6,HMSKSENLYSAARELIPGGVNSPVRAFTGVGGTPLFIEKADGAYLYDVDGKAYIDYVGSWGPMVLGHNHP,-0.279
7,HMNQYALTDREKNVLGLLVDGLSYKMIADKENISFHTVNAHVRKIYEKLHVHSLAEAVSKALKENL,0.056
8,HMNNTIKFSVDTTNSGKRLDIFLAENIKQFTRSYLKKIISNNQVKLNNLVANSPSIKVKHSDLILINILE,-0.62
9,HMEYNLTLEELNRDLYIRGEIWNVGDVVKTTDGDEGTIIRKGTNYVVFEDLRRVWLHNLEEVK,-1.64
10,HMETYTVSSKDGYANVRNEATVNSDLIAELKNGTLVTKFKEKGEWYYIEFEREDGTPFDYGYIHKSQLK,-0.224
11,HMIVVLKHGVTEQQMRNLIAWFKDQGVDVHVSRGIYQTVLGLVGDTSDIDVDLLRMLDIVDAVKRIT,-0.785
12,HMVTEKPLYRDELMDHDTVWVEPISMDSHLRMELRGWYHVKNRFVENEVGQRFYFDFYDIKWLAFTNGP,≥ 0.43
13,HMEQIGSIIKDIRKKNNLTQNEFASILGVTFQAVSKWENDKSIPDITILKDISNKFNVDLNYLISG,-0.48
14,HMAQISDEGLLRGLIVEMFEANPAVVEELLGGRDRKKGFVIGQIMKKTKGMANPALLDQLFYEELEKL,-1.31
15,HMLQEHVLEIRHPSWNDAFRIIGHDGWRTQTGAHAAILSYDEEELNIKWDSWGYERFIRDEKGIFRLAA,-0.165
16,HMAKQEPTDNGYDIYKVTASVLNVRNGAGTSYAVAYQLSKEDYVEVVSIDKGWAKLKDGKYVSADWITLYK,-0.596
17,HMPDLSGEEQQIVDILAQRGNLQINTLVVETDIPVHKMNAILFELEMKGVVRVLAGGMYQLL,-0.561
18,HMSTVEKDSELGGNFRIASYPTGKGQISEAIRSMIVRAKQVGVNIRLNTEATEEPLRALAPNAVILATG,0.18
19,HMSNETLFEFFEKNISQLTPTLVDNINRSLAVHSKKNVKLAIMIAAKSNVRNWNYISAILNRWEKE,-1.21
20,HMGQLIVTIPNFERRPAEQAIQKLEELGLVPEEKQIYHDDIPAGSVIYTDPSKDSQVNAGTKVYVYVSLG,-0.0832
21,HMLNTLGADIRALRKARGLTLAELAQTLGRSVGWLSQVERDMSEPGINDLRDLARALDVSISSLFG,-0.366
22,HMGIKAADIVTNDIQFNTQAQFDKYKDLYPTLGWGNYDPNKTYTMQGFKNKLKPNELFTGTPNLKIEDT,-0.105
23,HMDDLIIQIELKQEGLEITGLKVLLKEDSVIDEQVKQTIRRKIERFLVNLYGNPNVYVSKFSMGI,-1.36
24,HMHGSTAVVPQIKNMPYSEASVRLGANGLAIEINDSVYDRDMPPGTVIESWPKAGAVVKQGRQVYVTVTA,0.218
25,HMIPLSDEETILLKLLEATETHLDALIRGSQLSAAKVSVVLMGMEMKRLVKRLPGQMYQRWD,-1.55
26,HMTPDVHRGDTITVSLRAGAIRVRVPAKALEEGAAGGEIRVVNLTGGREYRVRVTGPGTAEAIL,0.0112

row,Sequence,soluble fraction (log2)
1,HMKRLPFSFAKRFGVVVEDGEPPIVHHRDGASAETLLEVRRRLGQVFTLQRHDAEAFERLLTQAYQR,-0.837
2,HMEETAFEKLSPLQKLRALGKPLTMINMRDGSQIAGSVQRSDDKFLYLDTGDGIAKLPVEEILRRTPM,0.13
3,HMKIVQHQLQLPVHVAGKFKGMFYKSDFVMSEDYDDDGNMILAVRLPLVDWNKFLKRTDNELSQYIKVTP,-1.53
4,HMQKPELLAPAGSLEKAKTAFKYGADAVYMGTSNLSLRSRVTVDDDELIKTIEYAHSINKKVYAALNIYAR,0.134
5,HMLEPGQKVKSVVVDISGDLIYIDLGGKTEGVVELKEFYDEAGEYHVKPGDEIEVFFVSVQNGLKRFTT,-0.403
6,HMKRIDTILETFAKVHKHIPSKLILLGDGPELLDMRKIARSLHIEDDVLFLGKQDQVSKFYQMADLVLLL,0.15
7,HMGVGIAEAMKHVADEDYGDLSSEFQRIFSAVDGGSTLGDAVRAQMRATSSAGLRRTLSVLAMSVE,-0.314
8,HMVPLSMLTEGQIFRGQVLDITSQGIKIQLNPEQILFARLGEQVELNIGQQMAFQVRENKGDQLIIHPMQN,-1.18
9,HMTDMYLTYQELRHLGVSQNLISMWKSRKSIDFHMLGGTLYVRYMSIPEQTRSKLALQNVERVYNSRE,0.0329
10,HMNPTTDFFKLEGIDATRILVFDQVGRQVAQFSQPAQQMDIQALPAGVYALRIENADGQVYSARIVK,-0.773
11,HMQKAEQIGSLLREKRKSMGLTQDELAQQVEVRRQTLADLELGKNVGSHLLIKVMEHLGVGFDLL,-0.962
12,HMLQLSDAISRVESFLQGQNRNLAFSIDENTERSVVTVLDSDTGDVIRQIPSEELLVLAKRIQELQQD,-1.19
13,HMTIEEMAIENINFSTQLLYKAMKYNGVNTVGDLLEKARSKKDLLTMAYIGNKEAEEIIEKLSELGITI,-1.84
14,HMSFGYFQLRAKDPQKLKSVLEKIPQIQSIKEEKGDLIGYLNADMEAEELSQKLAAAKIFVTHMAKKK,0.216
15,HMGIVAQLPTIRVNGKTLYYYDAQSGDNIYSIAEKLGVTVEDIRANNPGVADGVKPRMRLFFPTSLAK,0.0671
16,HMVGLTDLQRNVLVQIARGKSRQLISRTLKVTPAEISAALKVAQRRYRVASSTEVIVQALYDKTLSFHEIM,0.105
17,HMVVEDDTVLQAVKQAIEENPEAVSDYFEGKSKALNFLVGQVMRITRGKADPAKTNQMVVEELKNR,0.112
18,HMLNSLDATQRLKLNKDGVVVFNFGKYVDQSVIDIFKKEKGYYNWMMSKDFSQQVKNIITKIYQEEIIG,-0.0228
19,HMARGLRPVPSVFGLDVRQATRTLYAAGFQVSIARGSDVRTRPAAGTLLRVGSTVQLEMPRMESA,-0.000244
20,HMKLPNGYGGIAKLSGKRRNPWRVRVTKGWSVDEQTGKAKQLFSTLGYYPTRKDALAALSAYNQNP,0.22
21,HMGTSQSAVKAILAQLISDENKQKPYSDEALSRLLQQQGIDIARRTVAKYREALNIPPAHQRK,0.365
22,HMPIPIESEISRSPGQSIYAFVQQHYGRSGRSPADMRALVGLILRLNRQIRTPLLIPFGLVVVRPT,-0.253
23,HMDLHSQVFESYERKIREVLREGPLTFEEILHAFALKRHETVAQVITYLMDEGKMSDSGDGKLIYSG,-0.295
24,HMRQISDPTALASMVDKVIEDNPSAVADYRRGESKALGFLIGRVMQSSGGKANPKMIRGLLVKNLES,0.371
25,HMLASDYEEELSVLIKMSHKIAAGDDSLMDDFNDRVTMFESSYPINKATKDLTPVLERVNKFQT,-0.295
26,HMKAERLLALLTILLSGKRVSARWLSEELEVSERTVYRDVEALSEAGFPVYATTGRDGGFSLIDGF,-1.18

row,Sequence,soluble fraction (log2)
1,HMTQQNRDELYRRMIDAGWDQLVRNGIRSLRVEQVAAAVGIAKGTFYHFFDSKDDFIYAMLMENRQ,-1.03
2,HMPASDPNEKQILRFLTEHQVITRKETQALLDVSQSTAGRVLKAMVDNGQIKQLGGSRNTRYELPM,0.149
3,HMLTRQNFHGIKLPTIHEYIDLLNSRVNANIDKTNNWQSSVSHLRTYLNSHNINAVSKESINNYIDERLN,0.0397
4,HMKTLSKEDIGFLSDEAVGEMRKAVANGEMLELRALIDQVGEKNPIVAEKLLTLVKQYDYENLNRVLE,-0.802
5,HMGSFISADEALAKALSHAGLDQSAIRELEMDSELDDDVPHYSIDFKSGNLEYEYEISATDGSVLKFEQD,-0.0935
6,HMSTDIPFNIFSQKWNADEIDSIVVENNKIEGKTKDNKKFSTYAPDELLTSLMENHKNPNVIVEFRAP,-0.646
7,HMFNDPTMEDALVNLKGITNEVLSYLSSSKIKKLEELAEMSVPELKDIVENISDDEASALIMEARKPWF,-1.32
8,HMSDKTSLTDDDKALINSMLPDYDKYPSVAKLQAVEIAKSSSKMATLLMLDERYNETVSEALE,-1.14
9,HMRAKPLILLDGREISAEELFSLDKNSIKSIEVLKDETALAQYGEKAKNGVVLVVTKSAAAS,0.0982
10,HMDDSPTARALRTLDLIHNRPGITAAELADRLGVTERAVRRYVLTLRDAGVPVLGTPGRYGGYQVGK,-0.0455
11,HMLVNNSTIETVIDFANVKFGMELTKDQVSEQLRNLSFSQTLKLINSMKADDNDAFSEIIDL,-1.89
12,HMDSISEQIYSIIKEEILLAKRKPGEQINPRKLADEFETSVMPIRDALNQLANEGLVIRKPRVGFFVR,-0.177
13,HMIDPHGSLTLDLRPRDARVEIIDSNKTYKPGVRLPMGEYAIAVSRRGYISETKRINIEYGDNRERVAL,-0.00328
14,HMSNEDAYIKLRNGFLATLSEADLLLFTLREEGKTQKEIADQLGYKTHSAVSKRLQTMRGQFEGYLKTQ,-0.818
15,HMPGLSQAEAQSLLIAYLAQQGRTLELIPLGQSGDVWRFSGRESDGTVVSFFMVSRTDGTISEVPVPP,-0.992
16,HMPKSVRQSFVYSPMYRDVEYLADFLRNNNKDDSSVSASGDKLVYYGTADEIARVKSVLKGVDV,-0.51
17,HMFRPDYYEILQVDRHASPEVITAAYRQLLSIYNSEQDGNKQMIKLIQEAYGVLGDSQDRWLYDSWLDNN,-1.37
18,HMQVPVNVSMEILDWVIAHIKIDALPNQIREYLNLWVNGEKEPTFNQVEKVSKATGIPLGYFFLQTPPIED,-1.33
19,HMRRGPLTPDDFVLDMRVVHPRYGVGRIVALSGSGESRKATVDFGGSIGRMKFVLSQSPLKP,≥ 0.43
20,HMSAVNLNDDEKAVYKSIKSGIRSLDELSLRTGMKIYELMAITVSLEMKGLVTKSPDGTLDAT,-0.0308
21,HMVERRVRFTVAPGNAGLRLDLFLTAREIGLSRTQVGRAVDEGQIQVNGRPGRAGRKLKTGDVVAIVLPA,-0.0969
22,HMLSLGQQIRNHVLSRIESGEWPEGSRIPSEAKLVELLGASRMTIHIALRDLSAEGVLLRKQGAGTFVAPR,-0.553
23,HMTHRRLELTLDAIDERLDRALTAAVPELSRMQWQRLIREGLVTVDGERARPSYRIQGGETLVALVPEV,-0.167
24,HMKNSKIVIQKRHNHILELLKQNRTMDVTVLAERLGVTGATIRRDLKKLEQEGTIVRSFGKVSFVG,≥ 0.43
